Data on one protein can be found in article PMC10739146.

Data set [1] in a line: stepwise centrifugation P13/P100/S100, immunoblot. The conditions noted are these: glycan lost; control: wild type Rim21-HA.
Data set [2] can be described thus: anti-HA immunoblot of total lysate. As to conditions: glycan lost; control: wild type Rim21. On the technique in general: In western blotting, separated proteins are transferred to a membrane and probed.
The nature of data set [3]: GFP fluorescence microscopy with mRFP-Snc1(pm) marker. As to conditions: glycan lost; control: wild type Rim21-2GFP.
A short description of data set [4]: cycloheximide chase, immunoblot, ± alkali. The conditions noted are these: glycan lost; control: wild type Rim21.

B1: Rim21: N15Q (protein)
parent chain: MNLWRHSPEELAAYNSCHPMKLGSGVLIQLPLYDNSAVYAEDITFRSFCCERVPVYVSTVLRNSSPYRYLDEVINDWQKFIQVSDYVGGSAEYAIYAVILSITSNFVITVFLTVICCINISGRAYKRILQLLRIASLLASLNLTIFITKVLRRLEKEHNVYGVVRAHSIMHIFSDDMTFVVLDFLATLMFQFCQVGIVIRLFQRAQEKRIIFFIGVILTITANILWVIPPFANHTTKHRNDWQILRPFVYLFRIAIATSYASIVIYHIWQKKKLWFKFNQMGLLTLLTILVVLLLPGFFLADVSNLWISELGEVFNTTCYVTSTVITWEWLDRLNVLERKEEAQSILGRPIFEEEQQDYRFAKYALRVQNALTRRESQDASTDRHDTSSNSEVCDLQTISRYDPEDQISVGRSIDRMHFNDRGTYKDVALKKLGYARDKILYFTDQIVQKSVGHNNSSSSKNEKTKQRKAMVRKRLGLDKPGIYIYSTKDVVFNSDEDDDENAEDEDDDEYEVGSEGNNNSSATFTSDHIGHI
In the case of B1, the values for the localisation_or_trafficking result in data set [1] and in data set [3] were “changes” and “no change”, respectively. Also, the expression_or_secretion entry in data set [2] is on record as “increases”. Further, in data set [4], the degradation_or_half_life entry is “increases”.
